B1: eosinophil cationic protein (ECP) (other, human, UniProt P12724 28-160, looked up)
chain: RPPQFTRAQWFAIQHISLNPPRCTIAMRAINNYRWRCKNQNTFLRTTFANVVNVCGNQSIRCPHNRTLNNCHRSRFRVPLLHCDLINPGAQNISNCTYADRPGRRFYVVACDNRDPRDSPRYPVVPVHLDTTI
notes: Identified by proteomics in media conditioned by human PMNs
B2: neutrophil elastase (ELANE) (protein)
chain: IVGGRRARPHAWPFMVSLQLRGGHFCGATLIAPNFVMSAAHCVANVNVRAVRVVLGAHNLSRREPTRQVFAVQRIFENGYDPVNLLNDIVILQLNGSATINANVQVAQLPAQGRRLGNGVQCLAMGWGLLGRNRGIASVLQELNVTVVTSLCRRSNVCTLVRGRQAGVCFGDSGSPLVCNGLIHGIASFVRGGCASGLYPDAFAPVAQFVNWIDSIIQ

How the values were obtained:
[1] = biological target: T1, neutrophil elastase (ELANE) (human, UniProt P08246 30-247, limits assumed); experiment: enzyme kinetics: ELANE (10 nM) chromogenic substrate activity with ECP 0-180 nM, curve fitting
T1 construct: Purified ELANE; In the co-immunoprecipitation it is the native protein in human PMN media; also called human ELANE
T1 sequence (looked up): B2 chain
Description: Catalytic activity was measured using the chromogenic substrate N-Methoxysuccinyl-Ala-Ala-Pro-Val p-nitroanilide (Sigma, 100 μg/mL) according to manufacturer's protocol. Absorbance was measured at 405 nm using an accuSkan GO UV/Vis microplate spectrophotometer (ThermoFisher Scientific). […] Residual PMSF was eliminated with a PD-10 desalting column (GE Healthcare Life).

[2] = biological target: T2, eosinophil cationic protein (ECP), P12724
T2 chain: B1 chain

[3] = biological target: T3, recombinant human C-terminal CD95 (aa 212-335)
T3 chain: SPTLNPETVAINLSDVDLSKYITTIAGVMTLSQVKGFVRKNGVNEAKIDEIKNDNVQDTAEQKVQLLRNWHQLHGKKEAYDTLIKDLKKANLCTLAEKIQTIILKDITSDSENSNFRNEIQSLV

[4] = biological target: T4, recombinant human N-terminal CD95 (aa 1-173)
T4 chain: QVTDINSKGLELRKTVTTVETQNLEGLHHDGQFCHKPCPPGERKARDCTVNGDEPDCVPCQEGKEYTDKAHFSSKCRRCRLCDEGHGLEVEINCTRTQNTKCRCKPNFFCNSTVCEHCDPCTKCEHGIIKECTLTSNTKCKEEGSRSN

[5] = biological target: recombinant peptide corresponding to aa 214-231 of human CD95
[6] = biological target: recombinant peptide corresponding to aa 317-335 of human CD95

Binder	Kd [1] [nM]	catalytic turnover (kcat) of ELANE [2]	cleavage of recombinant protein (SDS-PAGE, Coomassie blue) [3]	cleavage of recombinant protein (SDS-PAGE, Coomassie blue) [4]	cleavage of peptide monitored by mass spectrometry [5]	cleavage of peptide monitored by mass spectrometry [6]
B1	17	–	–	–	–	–
B2	–	increases its catalytic turnover (kcat) by ~12-fold	ELANE preferentially cleaved the C-terminal domain	ELANE preferentially cleaved the C-terminal domain	studies with synthetic peptides validated these findings	studies with synthetic peptides validated these findings
